{
  "source": "patent US20060110769A1",
  "about": "“Regulation of novel human prolyl 4-hydroxylases” (Bayer Aktiengesellschaft, priority 2001, published 2006)",
  "type_in_all_cases": "cell-based, human",
  "key": {"HIF-1 alpha": {"test_system": "HIF-1 alpha", "test": "Cotransfection reporter assay (HIF-RE2-luc) with HIF-1 alpha in HEK/293 cells", "conditions": "for sensitivity of double mutant HIF-1 alpha (P402/577G) activity to cotransfected hydroxylase: HEK/293, double mutant, constitutively active; for sensitivity of HIF-1 alpha P402G mutant to cotransfected hydroxylase, versus wild type HIF-1 alpha: HEK/293, glycine substituted for P402; for sensitivity of HIF-1 alpha P577 mutant to cotransfected hydroxylase: HEK/293, mutation of P577; for reduction of transactivation activity of cotransfected HIF-1 alpha on hypoxia responsive reporter gene construct: HEK/293, wild type HIF-1 alpha, equal amounts of each plasmid transfected", "experimental": "(§1) HIF-prolyl hydroxylase activity of PH-2 was examined in a cellular co-transfection assay in HEK/293 cells. In a typical experiment, cells were seeded at a density of 2×10^4 cells per well in 96-well tissue culture plates (Greiner, Germany) and grown in DMEM F12 tissue culture medium (Gibco) supplemented with 10% fetal calf serum (PAA) and antibiotics for 24 hours at 37° C. in a humidified tissue culture incubator (Heraeus, Germany) in a 5% CO2 atmosphere. Plasmid DNA was introduced into the HEK/293 cells by use of Lipofectamin reagent (Gibco) according to the manufacturer's instructions.\n(§2) The following expression plasmids were used in transfection experiments. pCDNA3 cloning vectors were obtained from Invitrogen: • HIF-1alpha pcDNA3 containing the coding sequence of mouse hypoxia inducible factor-1 alpha (Gene bank accession number: NM_010431). • HIF-1 alpha P402G pcDNA3 containing the coding sequence of mouse hypoxia inducible factor-1 alpha in which the HIF proline hydroxylase sensitive proline residue at position 402 was replaced with glycine by site-directed mutagenesis using QuickChange™ XL Site-Directed Mutagenesis Kit, Stratagene. • HIF-1 alpha P577G pcDNA3 containing the coding sequence of mouse hypoxia inducible factor-1alpha in which the HIF proline hydroxylase sensitive proline residue at position 577 (the ortholog of P564 of human HIF) was replaced with glycine by site-directed mutagenesis using QuickChange™ XL Site-Directed Mutagenesis Kit, Stratagene. • HIF-1 alpha P402/577G pcDNA3 containing the coding sequence of mouse hypoxia inducible factor-1alpha in which both HIF proline hydroxylase sensitive proline residues at positions 402 and 577 were replaced with glycine by site-directed mutagenesis using QuickChange™ XL Site-Directed Mutagenesis Kit, Stratagene. • HIF-2 alpha pcDNA3 containing the coding sequence of mouse hypoxia inducible factor-2 alpha (Gene bank accession number: AF045160). • HIF-RE2-luc, HIF reporter construct (constructed in pGL3, Promega) consisting of a minimal promoter containing a tandem of hypoxia responsible elements (FIG. 5, bold underlined) and the CMV promoter TATA box (FIG. 5, underlined) upstream of the firefly luciferase gene. • pRLTK (Promega) containing the coding sequence of renilla luciferase, used as transfection standard. • PH-alpha(I) pcDNA3 containing the coding sequence of human prolyl 4-hydroxylase alpha (I) (Gene bank accession number: U14620). • EGLN3 pcDNA3 containing the coding sequence of a recently identified human HIF-prolyl-hydroxylase (Epstein et al., Cell 107, 43-54, 2001; Bruick & McKnight, Science 294, 1337-40, 2001; gene bank accession number: XM—052824). • PH-2 pcDNA3 containing the coding sequence from SEQ ID NO:3.\n(§3) In a typical experiment, 30 ng of HIF-RE2 pGL3 luciferase reporter plasmid and 10 ng pRLTK internal standard were cotransfected with prolyl-4 hydroxylase and HIF pCDNA3 expression plasmids. The amount of transfected pCDNA3 plasmids was kept constant at 60 ng by filling up with pCDNA3 empty cloning vector. Twenty-four hours later, luciferase activity was measured in a lumibox equipped with a Hamamatsu camera (Hamamatsu Photonics, Japan) using after lysis of cells in luciferase buffer.\nA luciferase reporter construct in which a tandem of hypoxia responsive elements linked to a minimal promoter drive firefly luciferase was cotransfected with HIF-1 alpha and HIF-2 alpha, respectively, and with the candidate HIF prolyl 4-hydroxylases EGLN3 and PH-2, respectively."}, "HIF-2 alpha protein": {"test_system": "HIF-2 alpha protein", "test": "Western blot analysis of HIF-2 alpha protein in cotransfected HEK/293 cells", "conditions": "HEK/293, HIF-2 alpha specific polyclonal antibody", "experimental": "HIF-prolyl hydroxylase activity of PH-2 was examined in a cellular co-transfection assay in HEK/293 cells. In a typical experiment, cells were seeded at a density of 2×10^4 cells per well in 96-well tissue culture plates (Greiner, Germany) and grown in DMEM F12 tissue culture medium (Gibco) supplemented with 10% fetal calf serum (PAA) and antibiotics for 24 hours at 37° C. in a humidified tissue culture incubator (Heraeus, Germany) in a 5% CO2 atmosphere. Plasmid DNA was introduced into the HEK/293 cells by use of Lipofectamin reagent (Gibco) according to the manufacturer's instructions. […]"}, "HIF-2 alpha": {"test_system": "HIF-2 alpha", "test": "Cotransfection reporter assay (HIF-RE2-luc) with HIF-2 alpha in HEK/293 cells", "conditions": "for activity of HIF-2 alpha on reporter: HEK/293, hydroxylase and HIF-2 alpha cotransfected in a ratio 10:1; for activity on HIF-2 alpha compared with activity on HIF-1 alpha: HEK/293 cotransfection reporter assay", "experimental": "as §1, §2, §3"}, "[1]": {"conditions": "HEK/293, equal amounts of each plasmid transfected"}},
  "data": [
    {"molecule": "PH-2: novel human prolyl 4-hydroxylase, SEQ ID NO:4; expressed from PH-2 pcDNA3 containing the coding sequence from SEQ ID NO:3 (protein, listed as Homo sapiens) MAAAAVTGQRPETAAAEEASRPQWAPPDHCQAQAAAGLGDGEDAPVRPLCKPRGICSRAYFLVLMVFVHLYLGNVLALLLFVHYSNGDESSDPGPQHRAQGPGPEPTLGPLTRLEGIKVGHERKVQLVTDRDHFIRTLSLKPLLFEIPGFLTDEECRLIIHLAQMKGLQRSQILPTEEYEEAMSTMQVSQLDLFRLLDQNRDGHLQLREVLAQTRLGNGWWMTPESIQEMYAAIKADPDADGVLSLQEFSNMDLRDFHKYMRSHKAESSELVRNSHHTWLYQGEGAHHIMRAIRQRVLRLTRLSPEIVELSEPLQVVRYGEGGHYHAHVDSGPVYPETICSHTKLVANESVPFETSCRYMTVLFYLNNVTGGGETVFPVADNRTYDEMSLIQDDVDLRDTRRHCDKGNLRVKPQQGTAVFWYNYLPDGQGWVGDVDDYSLHGGCLVTRGTKWIANNWINVDPSRARQALFQQEMARLAREGGTDSQPEWALDRAYRDARVEL", "values": [
      {"measurement": "sensitivity of double mutant HIF-1 alpha (P402/577G) activity to cotransfected hydroxylase", "setting": "HIF-1 alpha", "result": "almost completely resistant"},
      {"measurement": "sensitivity of HIF-1 alpha P402G mutant to cotransfected hydroxylase, versus wild type HIF-1 alpha", "setting": "HIF-1 alpha", "result": "equally sensitive"},
      {"measurement": "sensitivity of HIF-1 alpha P577 mutant to cotransfected hydroxylase", "setting": "HIF-1 alpha", "result": "less sensitive"},
      {"measurement": "reduction of transactivation activity of cotransfected HIF-1 alpha on hypoxia responsive reporter gene construct", "setting": "HIF-1 alpha", "result": "~80", "unit": "%"},
      {"measurement": "HIF-2 alpha protein by Western blot", "setting": "HIF-2 alpha protein", "result": "disappearance"},
      {"measurement": "activity of HIF-2 alpha on the hypoxia responsive reporter gene construct", "setting": "HIF-2 alpha; [1]", "result": "reduced"},
      {"measurement": "activity on HIF-2 alpha relative to EGLN3", "setting": "HIF-2 alpha; [1]", "result": "by a factor two less active"},
      {"measurement": "activity of HIF-2 alpha on reporter", "setting": "HIF-2 alpha", "result": "completely abolished"},
      {"measurement": "activity on HIF-2 alpha compared with activity on HIF-1 alpha", "setting": "HIF-2 alpha", "result": "less active"}
    ]},
    {"molecule": "EGLN3: recently identified human HIF-prolyl-hydroxylase (gene bank accession number XM—052824), expressed from EGLN3 pcDNA3 (protein) MPLGHIMRLDLEKIALEYIVPCLHEVGFCYLDNFLGEVVGDCVLERVKQLHCTGALRDGQLAGPRAGVSKRHLRGDQITWIGGNEEGCEAISFLLSLIDRLVLYCGSRLGKYYVKERSKAMVACYPGNGTGYVRHVDNPNGDGRCITCIYYLNKNWDAKLHGGILRIFPEGKSFIADVEPIFDRLLFFWSDRRNPHEVQPSYATRYAMTVWYFDAEERAEAKKKFRNLTRKTESALTED", "values": [
      {"measurement": "sensitivity of double mutant HIF-1 alpha (P402/577G) activity to cotransfected hydroxylase", "setting": "HIF-1 alpha", "result": "almost completely resistant"},
      {"measurement": "sensitivity of HIF-1 alpha P402G mutant to cotransfected hydroxylase, versus wild type HIF-1 alpha", "setting": "HIF-1 alpha", "result": "equally sensitive"},
      {"measurement": "sensitivity of HIF-1 alpha P577 mutant to cotransfected hydroxylase", "setting": "HIF-1 alpha", "result": "less sensitive"},
      {"measurement": "reduction of transactivation activity of cotransfected HIF-1 alpha on hypoxia responsive reporter gene construct", "setting": "HIF-1 alpha", "result": "about 90%"},
      {"measurement": "HIF-2 alpha protein by Western blot", "setting": "HIF-2 alpha protein", "result": "disappearance"},
      {"measurement": "activity of HIF-2 alpha on the hypoxia responsive reporter gene construct", "setting": "HIF-2 alpha; [1]", "result": "reduced"},
      {"measurement": "activity of HIF-2 alpha on reporter", "setting": "HIF-2 alpha", "result": "completely abolished"},
      {"measurement": "activity on HIF-2 alpha compared with activity on HIF-1 alpha", "setting": "HIF-2 alpha", "result": "less active"}
    ]},
    {"molecule": "PH-alpha(I): human collagen prolyl 4-hydroxylase alpha (I) (Gene bank accession number U14620), expressed from pcDNA3 (protein) HPGFFTSIGQMTDLIHTEKDLVTSLKDYIKAEEDKLEQIKKWAEKLDRLTSTATKDPEGFVGHPVNAFKLMKRLNTEWSELENLVLKDMSDGFISNLTIQRQYFPNDEDQVGAAKALLRLQDTYNLDTDTISKGNLPGVKHKSFLTAEDCFELGKVAYTEADYYHTELWMEQALRQLDEGEISTIDKVSVLDYLSYAVYQQGDLDKALLLTKKLLELDPEHQRANGNLKYFEYIMAKEKDVNKSASDDQSDQKTTPKKKGVAVDYLPERQKYEMLCRGEGIKMTPRRQKKLFCRYHDGNRNPKFILAPAKQEDEWDKPRIIRFHDIISDAEIEIVKDLAKPRLSRATVHDPETGKLTTAQYRVSKSAWLSGYENPVVSRINMRIQDLTGLDVSTAEELQVANYGVGGQYEPHFDFARKDEPDAFKELGTGNRIATWLFYMSDVSAGGATVFPEVGASVWPKKGTAVFWYNLFASGEGDYSTRHAACPVLVGNKWVSNKWLHERGQEFRRPCTLSELE", "values": [
      {"measurement": "reduction of transactivation activity of cotransfected HIF-1 alpha on hypoxia responsive reporter gene construct", "setting": "HIF-1 alpha", "result": "did not reduce"}
    ]}
  ]
}
